Experimental data as given in US20230109780A1 (XIYUAN ANJIAN MEDICINE SHANGHAI, published 2023).
Numbering of substitutions follows the chain as printed.

T1: human BDNF (human, UniProt P23560 129-247)
T1 construct: Bought protein; also called Brain-Derived Neurotrophic Factor
T1 sequence (looked up): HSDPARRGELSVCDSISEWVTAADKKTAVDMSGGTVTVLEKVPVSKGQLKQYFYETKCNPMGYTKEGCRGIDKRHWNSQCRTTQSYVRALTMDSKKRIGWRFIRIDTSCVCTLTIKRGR

T2: human NT-4 (human, UniProt P34130 81-210)
T2 construct: Bought protein; also called Neurotrophic factor-4
T2 sequence (looked up): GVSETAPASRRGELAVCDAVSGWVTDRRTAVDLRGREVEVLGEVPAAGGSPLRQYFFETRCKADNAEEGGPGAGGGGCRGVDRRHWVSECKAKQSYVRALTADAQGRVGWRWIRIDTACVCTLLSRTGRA

T3: human NT-3 (human, UniProt P20783 139-257)
T3 construct: Bought protein; also called Neurotrophic factor-3
T3 sequence (looked up): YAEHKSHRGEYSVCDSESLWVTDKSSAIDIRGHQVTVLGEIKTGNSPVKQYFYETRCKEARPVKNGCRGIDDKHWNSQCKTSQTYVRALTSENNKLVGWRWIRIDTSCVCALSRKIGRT

B1: human-mouse chimeric antibody 138E12-Chi (antibody, V domains shown)
VH: QVQLKESGPGLVAPSQSLSITCTVSGFSLTGYGVNWVRQPPGKGLEWLGMIWFDGSTDYNSALKSRLSISKDNSKSQVFLKMNSLQTDDTARYYCAREGYYYGTTYYFDYWGQGTTLTVSS
VL: DIQMTQTTSSLSASLGDRVTISCRASQDISNYLNWYQQKPDGTVKLLIYYTSRLHSGVPSRFSGSGSGTDYSLTISNLEQEDIATYFCQQGNTLPRTFGGGTKLEIK
notes: the constant regions are not specified
B2: humanized anti-NGF antibody 138E12-07 (antibody, V domains shown)
VH: QVQLQESGPGLVKPSETLSLTCTVSGFSLTGYGVNWIRQPPGKGLEWIGMIWFEGSTDYQSALKSRVTISVDTSKNQFSLKLSSVTAADTAVYYCAREGYYYGTTYYFDYWGQGTTVTVSS
VL: DIQMTQSPSSLSASVGDRVTITCRASQDISNYLNWYQQKPGKAPKLLIYYTSRLHSGVPSRFSGSGSGTDYTLTISSLQPEDFATYFCQQGNTLPRTFGGGTKVEIK
B3: humanized anti-NGF antibody 138E12-09 (antibody, V domains shown)
VH: B2 VH with E54D, V71K, T73N, N76S, F78V
VL: B2 VL
B4: humanized anti-NGF antibody 138E12-11 (antibody, V domains shown)
VH: B2 VH with I48L, V67L, V71K, T73N, N76S, F78V
VL: B2 VL
B5: humanized anti-NGF antibody 138E12-10 (antibody, V domains shown)
VH: B2 VH with V71K, T73N, N76S, F78V
VL: B2 VL
B6: humanized anti-NGF antibody 138E12-08 (antibody, V domains shown)
VH: B2 VH with Q60N, V71K, T73N, N76S, F78V
VL: B2 VL
B7: humanized anti-NGF antibody 43E5-02 (antibody, V domains shown)
VH: QVQLVQSGAEVKKPGASVKVSCKASGYTFTDYEMHWVRQAPGQGLEWIGAIDPETGGTAYNQKFKGRATLTADKSISTAYMELSRLRSDDTAVYYCRRGANLNHYGNDEGSYWGQGTLVTVSS
VL: DVVMTQSPLSLPVTLGQPASISCKSSQSLLHSVGKTYLNWLQQRPGQSPRRLIYLVSKLDSGVPDRFSGSGSGTDFTLKISRVEAEDVGVYFCWQGTHLPQTFGGGTKVEIK
notes: Humanized antibody expressed in CHO cells
B8: humanized anti-NGF antibody 43E5-01 (antibody, V domains shown)
VH: B7 VH with I48M, A68V, L70M
VL: B7 VL
notes: as for B7
B9: humanized anti-NGF antibody 43E5-06 (antibody, V domains shown)
VH: B7 VH with A16S, I76T, R85S, D89E
VL: B7 VL
notes: as for B7
B10: humanized anti-NGF antibody 43E5-05 (antibody, V domains shown)
VH: B7 VH with A16S, I48M, A68V, L70I, I76T, R85S, D89E
VL: B7 VL
notes: as for B7
B11: human-mouse chimeric antibody 43E5-chi (antibody, V domains shown)
VH: QVQLQQSGAELVRPGASVTLSCKASGYTFTDYEMHWVRQTPVHGLEWIGAIDPETGGTAYNQKFKGKATLTADKSSSTAYMELRSLTSEDSAVYYCRRGANLNHYGNDEGSYWGQGTLVTVSA
VL: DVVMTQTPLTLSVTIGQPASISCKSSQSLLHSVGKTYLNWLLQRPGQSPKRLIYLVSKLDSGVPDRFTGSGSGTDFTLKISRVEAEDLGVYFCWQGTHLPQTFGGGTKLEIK
notes: as for B1

target: T1, human BDNF; assay: ELISA, plate coated with human BDNF (50 ng per well), OD450

Binder	binding result
B1	no binding (tested: 66.67 nM)
B2	no binding (tested: 66.67 nM)
B3	no binding (tested: 66.67 nM)
B4	no binding (tested: 66.67 nM)
B5	no binding (tested: 66.67 nM)
B6	no binding (tested: 66.67 nM)

target: T2, human NT-4; assay: ELISA, plate coated with human NT-4 (50 ng per well), OD450

Binder	binding result
B7	no binding (tested: 66.67 nM)
B8	no binding (tested: 66.67 nM)
B9	no binding (tested: 66.67 nM)
B10	no binding (tested: 66.67 nM)
B11	no binding (tested: 66.67 nM)

target: T4, recombinant human NGF protein (human, UniProt P01138 122-241); assay: cell-based or functional assay
T4 sequence (P01138 122-241 limits assumed): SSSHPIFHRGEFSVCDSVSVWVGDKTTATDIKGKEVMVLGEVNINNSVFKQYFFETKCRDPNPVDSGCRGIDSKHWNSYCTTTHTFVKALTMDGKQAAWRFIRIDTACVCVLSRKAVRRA

Binder	IC50, inhibition of NGF-induced proliferation of TF-1 cell [nM]
B1	0.074
B7	0.534
B8	0.582
B9	0.568
B10	0.701
B2	0.214
B3	0.035
B4	0.062
B5	0.031
B6	0.067
B11	0.255

target: T3, human NT-3; assay: ELISA, plate coated with human NT-3 (50 ng per well), OD450
Protocol: Each well of a 96-well microtiter plate was coated with 50 ng of human NGF (Beijing Yiqiao Shenzhou Technology Co., Ltd., 11050-HNAC), human BDNF (Beijing Yiqiao Shenzhou Technology Co., Ltd., 50240-MNAS), human NT-3 (Beijing Yiqiao Shenzhou Technology Co., Ltd., 10286-HNAE), or human NT-4 (Alomone, N-270). The bindings of the murine anti-NGF antibodies to human NGF and three homo-family proteins were detected according to the method described in Example 2.
The binding of the humanized anti-NGF antibody to human NGF and to three homo-family proteins was detected according to the ELISA method described in Example 6A.

Binder	binding result
B1	no binding (tested: 66.67 nM)
B2	no binding (tested: 66.67 nM)
B3	no binding (tested: 66.67 nM)
B4	no binding (tested: 66.67 nM)
B5	no binding (tested: 66.67 nM)
B6	no binding (tested: 66.67 nM)

target: T3, human NT-3; assay: as above; remark: another data set of the same source

Binder	binding result
B7	no binding (tested: 66.67 nM)
B8	no binding (tested: 66.67 nM)
B9	no binding (tested: 66.67 nM)
B10	no binding (tested: 66.67 nM)
B11	no binding (tested: 66.67 nM)

target: T4, recombinant human NGF protein; assay: ELISA, human NGF coated
Protocol: The affinity and specificity of humanized antibody were investigated by using human NGF as an antigen (Beijing Yiqiao Shenzhou Technology Co., Ltd., 11050-HNAC). NGF was diluted with […] coating solution (PBS), and each well of 96-well microtiter plate was coated with 50 ng, after washing and blocking, and then added with serially diluted antibodies, and incubated at room temperature for 1 hour. After washing three times, HRP-conjugated donkey anti-human IgG antibody (Biolegend) was added and reacted at room temperature for 1 hour. After washing three times, tetramethylbenzidine (TMB, Biolegend) was added for color development. 1M HC1 was […] used to terminate the color development, and the absorbance values were read at 450 nm with a microplate reader.

Binder	EC50 [nM]
B1	0.0454
B7	0.222
B8	0.229
B9	0.192
B10	0.214
B2	0.034
B3	0.027
B4	0.0324
B5	0.0184
B6	0.0253
B11	0.104

target: T1, human BDNF; assay: ELISA, plate coated with human BDNF (50 ng per well), OD450; remark: another data set of the same source

Binder	binding result
B7	no binding (tested: 66.67 nM)
B8	no binding (tested: 66.67 nM)
B9	no binding (tested: 66.67 nM)
B10	no binding (tested: 66.67 nM)
B11	no binding (tested: 66.67 nM)

target: T2, human NT-4; assay: ELISA, plate coated with human NT-4 (50 ng per well), OD450; remark: another data set of the same source

Binder	binding result
B1	no binding (tested: 66.67 nM)
B2	no binding (tested: 66.67 nM)
B3	no binding (tested: 66.67 nM)
B4	no binding (tested: 66.67 nM)
B5	no binding (tested: 66.67 nM)
B6	no binding (tested: 66.67 nM)
